# In patent US20240166688:
# T1: peptide of SEQ ID NO: 1
# T1 chain: GKCSTRGRKCCRRKK
# Molecular target: T1, peptide of SEQ ID NO: 1
protein,measurement,value
HDAC5 in RAW 264.7 cells (protein) MNSPNESDGMSGREPSLGILPRTPLHSIPVAVEVKPVLPGAMPSSMGGGGGGSPSPVELRGALAGPMDPALREQQLQQELLVLKQQQQLQKQLLFAEFQKQHDHLTRQHEVQLQKHLKQQQEMLAAKRQQELEQQRQREQQRQEELEKQRLEQQLLILRNKEKSKESAIASTEVKLRLQEFLLSKSKEPTPGGLNHSLPQHPKCWGAHHASLDQSSPPQSGPPGTPPSYKLPLLGPYDSRDDFPLRKTASEPNLKVRSRLKQKVAERRSSPLLRRKDGTVISTFKKRAVEITGTGPGVSSVCNSAPGSGPSSPNSSHSTIAENGFTGSVPNIPTEMIPQHRALPLDSSPNQFSLYTSPSLPNISLGLQATVTVTNSHLTASPKLSTQQEAERQALQSLRQGGTLTGKFMSTSSIPGCLLGVALEGDTSPHGHASLLQHVCSWTGRQQSTLIAVPLHGQSPLVTGERVATSMRTVGKLPRHRPLSRTQSSPLPQSPQALQQLVMQQQHQQFLEKQKQQQMQLGKILTKTGELSRQPTTHPEETEEELTEQQEALLGEGALTIPREGSTESESTQEDLEEEEEEEEEEEEDCIQVKDEDGESGPDEGPDLEESSAGYKKLFADAQQLQPLQVYQAPLSLATVPHQALGRTQSSPAAPGSMKSPTDQPTVVKHLFTTGVVYDTFMLKHQCMCGNTHVHPEHAGRIQSIWSRLQETGLLGKCERIRGRKATLDEIQTVHSEYHTLLYGTSPLNRQKLDSKKLLGPISQKMYAMLPCGGIGVDSDTVWNEMHSSSAVRMAVGCLVELAFKVAAGELKNGFAIIRPPGHHAEESTAMGFCFFNSVAITAKLLQQKLSVGKVLIVDWDIHHGNGTQQAFYNDPSVLYISLHRYDNGNFFPGSGAPEEVGGGPGVGYNVNVAWTGGVDPPIGDVEYLTAFRTVVMPIAQEFSPDVVLVSAGFDAVEGHLSPLGGYSVTARCFGHLTRQLMTLAGGRVVLALEGGHDLTAICDASEACVSALLSVELQPLDEAVLQQKPSVNAVATLEKVIEIQSKHWSCVQRFAAGLGCSLREAQTGEKEEAETVSAMALLSVGAEQAQAVATQEHSPRPAEEPMEQEPAL,"Phosphorylation ratio (Phospho explorer antibody microarray, peptide + LPS against LPS alone)",phosphorylation of HDAC5 was inhibited the most (0.278)
